Test results taken from patent US20060189522A1 (IMPERIAL INNOVATIONS, published 2006).

Key:
[1] = biological target: T1, GLP-1 receptor in rat hypothalamic membrane preparations (rat, UniProt P32301 22-463); assay: competition with [125I]GLP-1 on rat hypothalamic membranes, radioligand displacement
T1 construct: whole, on cells; Native receptor in a rat hypothalamic membrane preparation, not intact cells and not a recombinant construct; also called GLP-receptor; GLP-IR
T1 sequence (looked up): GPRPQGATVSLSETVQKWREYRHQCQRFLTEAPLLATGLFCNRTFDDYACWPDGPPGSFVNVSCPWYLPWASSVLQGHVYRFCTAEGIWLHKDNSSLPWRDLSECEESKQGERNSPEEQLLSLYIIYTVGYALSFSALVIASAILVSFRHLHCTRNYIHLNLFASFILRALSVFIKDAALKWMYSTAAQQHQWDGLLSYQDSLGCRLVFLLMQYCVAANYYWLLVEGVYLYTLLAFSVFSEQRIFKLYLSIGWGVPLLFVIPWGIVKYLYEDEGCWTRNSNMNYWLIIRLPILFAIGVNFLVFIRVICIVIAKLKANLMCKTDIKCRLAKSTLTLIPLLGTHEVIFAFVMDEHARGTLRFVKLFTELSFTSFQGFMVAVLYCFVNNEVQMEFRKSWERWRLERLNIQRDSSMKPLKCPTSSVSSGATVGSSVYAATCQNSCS
Protocol: (§1) Membranes were incubated at room temperature for 90 min. Bound and free radioactivity were separated by centrifugation (2 min, 4° C.). Pelleted membranes were washed with assay buffer (0.5 ml, ice-cold), and the membranes were centrifuged as described above. The supernatant was removed, and the radioactivity in the pellet was counted using a γ-counter. […] All curves were constructed with points in triplicate. IC₅₀ values were calculated using the Prism 3 program (GraphPad Software, Inc., San Diego, Calif.).

[2] = biological target: T1, GLP-1 receptor in rat hypothalamic …; assay: competition with [125I]GLP-1 (100 pM) on rat hypothalamic membranes, radioligand displacement
Protocol: as §1

- affinity relative to GLP-1 [1]: ~2 orders of magnitude weaker than GLP-1
- IC50 [2]: 8.2 nM
Binder: HSQGTFTSDYSKYLDSRRAQDFVQWLMNTKRNKNNIA (Bought from IAF BioChem Pharma) [human oxyntomodulin (OXM)]
